Measured values taken from paper PMC8914023.

Experiments:
[1] = molecular target: EhP3 (Entamoeba histolytica 14-3-3 protein isoform 3) (Entamoeba histolytica); experiment: SPR; Autolab ESPIRIT; EhP3 immobilised; EhActo flowed at increasing concentrations; 10 mM HEPES, 0.2 mM calcium acetate, 0.005% Triton-X100; 25°C
[2] = molecular target: F-actin (rabbit muscle actin filaments) (rabbit) (UniProt P68135); experiment: SPR

EhP3 (Entamoeba histolytica 14-3-3 protein isoform 3) (Entamoeba histolytica), sequence (C4M0F4 whole entry, canonical isoform): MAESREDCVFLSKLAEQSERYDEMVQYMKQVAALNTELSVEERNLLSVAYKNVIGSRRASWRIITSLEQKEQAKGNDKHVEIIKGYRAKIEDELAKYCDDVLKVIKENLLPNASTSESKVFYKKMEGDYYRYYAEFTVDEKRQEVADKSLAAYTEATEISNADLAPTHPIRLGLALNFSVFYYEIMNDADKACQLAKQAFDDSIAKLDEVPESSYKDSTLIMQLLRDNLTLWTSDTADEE

With “Entamoeba histolytica actophorin (EhActo) (from UniProt C4LVG4 1-138) (natural protein)” as the substance, how does the Kd [1] read?
Its Kd is 1000 nM.

What about the Kd [2] of the same substance?
The Kd was 249 nM.
